# Measured values as given in patent publication US5516656A, “Production of a new hirudin analog and anticoagulant pharmaceutical composition containing the same” (Nippon Mining Company, Limited, priority 1990, dated 1996).
# Substitutions are numbered along the chain they refer to.
# B1: HV1C3: hirudin analog having the hirudin HV1 amino acid sequence up to the 52nd amino acid and thereafter substituted with the sequence of HV3 (protein)
# chain: VVYTDCTESGQNLCLCEGSNVCGQGNKCILGSDGEKNQCVTGEGTPKPQSHNQGDFEPIPEDAYDE
# B2: HV3: natural hirudin variant of 66 amino acids, produced here by secretion from E. coli (protein)
# chain: B1 chain with V1I, V2T, Q24K, D33Q, E35K, K36D
# Tests used:
# Thrombin [1] = biological target: T1, Thrombin (Homo sapiens, UniProt P00734); test: Inhibitory action of hirudin against thrombin induced death; assay type: in vivo, mice; set-up: Thrombin (10 NIH unit/10 g) was administered intravenously to male mice; conditions: for Score: score 0 normal, 1 disappearance of roll over reflection, 2 death within 20 minutes
# Experimental: Thrombin (10 NIH unit/10 g) was administered intravenously to male mice (20-25 g), without anesthesia, and the anti-thrombin activity of the tested compound was evaluated by observing the disappearance of roll over reflection and death as indexes. All the tested compounds were dissolved in saline, and 0.05 ml/10 g were administered intravenously 5 min prior to the thrombin injection.
# [2] = Prolongation of bleeding time (tail vein puncture wound); assay type: in vivo, mice; conditions: for Bleeding time: wound 5 minutes after administration
# Experimental: Samples were injected into male mice (20-25 g) under anesthesia using sodium pentobarbital (40 mg/kg i.p.) via their tail vein. A puncture wound was made by inserting a 21 G needle (outer diameter 0.85 mm) into the other side of the tail vein 5 minutes after the administration of the test compounds, and the bleeding time of the wound was measured. A filter paper was put on the wound, with changes every 15 seconds. Bleeding time is defined as the time required until no red spot is observed on the filter paper.
# Thrombin [3] = biological target: T1, Thrombin; test: anti-thrombin activity, chromogenic substrate chromozyme TH; assay type: biochemical; set-up: purchased Sigma; conditions: purified by C4 reverse phase HPLC
# Experimental: Precipitated cells of each sample were suspended in 1 ml of 50 mM Tris-HCl (pH7.5) containing 25% sucrose and 1 mM EDTA, followed by incubation at room temperature for 10 minutes. After collecting the cells by centrifugation at 6,000×g for 10 minutes, the cells were suspended in 1 ml of cold water to release the substances in the periplasmic space by osmotic shock. Cells were removed from the periplasmic fraction by centrifugation at 6,000×g for 10 minutes. The amount of secreted and periplasmically-accumulated hirudin was determined by measuring the anti-thrombin activity in the supernatant. The antithrombin activity is based on quantitative measurement of the color intensity generated by thrombin's hydrolytic activity on the synthetic chromogenic substrate chromozyme TH (Tocylglycil-prolylarginine-4-nitroanilideacetate, Boeringer-Mannheim) and hirudin's inhibitory activity against thrombin, which will repress color generation.
# This reaction was carried out as follows. […]
# Both the substrate and chromozymeTH were added to a final concentration of 200 μM to measure the release of p-nitroanilide by the increase of absorbance at 405 nm of the solution per 1 minute, and the anti-thrombin activity (ATU) was calculated.
Molecule,Score (Thrombin [1]; 200 μg/10 g weight i.v. 5 min prior to thrombin 10 NIH unit/10 g),Score (Thrombin [1]; 500 μg/10 g weight i.v. 5 min prior to thrombin 10 NIH unit/10 g),Bleeding time ([2]; 50 μg/10 g weight i.v.) [s],Bleeding time ([2]; 100 μg/10 g weight i.v.) [s],Bleeding time ([2]; 200 μg/10 g weight i.v.) [s],"bleeding tendency compared with hirudin HV1 ([2]; mice, in words)",Score (Thrombin [1]; 20 μg/10 g weight i.v. 5 min prior to thrombin 10 NIH unit/10 g),Score (Thrombin [1]; 50 μg/10 g weight i.v. 5 min prior to thrombin 10 NIH unit/10 g),Score (Thrombin [1]; 100 μg/10 g weight i.v. 5 min prior to thrombin 10 NIH unit/10 g),"inhibitory activity compared with hirudin HV1 in thrombin induced death (Thrombin [1]; in vivo, mice, relative to HV1)",anti-thrombin activity (specific / relative activity) of purified product (Thrombin [3])
"HV1: hirudin variant 1, natural anti-coagulation peptide of Hirudo medicinalis, produced here by secretion from E. coli [reference compound]",0.6,0.4,,,,,,,,,
B1,,,264.0 ± 17.6,291.0 ± 30.2,369.0 ± 34.9,less bleeding than hirudin HV1,1.2,0.6,0.4,4-5 times,"11,250 ATU/mg"
B2,,,,,,,,,,,8139 ATU/mg
